Assay results published in US20250250357A1 (NANJING ZAIMING PHARMACEUTICAL, published 2025).

Legend:
[1] = molecular target: T1, human MSLN-R2-his protein (human, UniProt Q13421 391-486); experiment: ELISA; antibody 1 nM
T1 construct: also called hMSLN-R2-his; not shown: His tag

[2] = molecular target: T2, human MSLN-R3-his protein (human, UniProt Q13421 487-598); experiment: ELISA; antibody 1 nM
T2 construct: also called hMSLN-R3-his; not shown: His tag

[3] = molecular target: T1, human MSLN-R2-his protein; experiment: ELISA; antibody 10 nM
[4] = molecular target: T2, human MSLN-R3-his protein; experiment: ELISA; antibody 10 nM
[5] = molecular target: T1, human MSLN-R2-his protein; experiment: ELISA; antibody 0.1 nM
[6] = molecular target: T1, human MSLN-R2-his protein; experiment: ELISA; antibody 100 nM
[7] = molecular target: T2, human MSLN-R3-his protein; experiment: ELISA; antibody 0.1 nM
[8] = molecular target: T2, human MSLN-R3-his protein; experiment: ELISA; antibody 100 nM
[9] = molecular target: T1, human MSLN-R2-his protein; experiment: ELISA; antibody 0.01 nM
[10] = molecular target: T2, human MSLN-R3-his protein; experiment: ELISA; antibody 0.01 nM
[11] = molecular target: T1, human MSLN-R2-his protein; experiment: ELISA; antibody 0.001 nM
[12] = molecular target: T2, human MSLN-R3-his protein; experiment: ELISA; antibody 0.001 nM
[13] = molecular target: T1, human MSLN-R2-his protein; experiment: ELISA; antibody 0.0001 nM
[14] = molecular target: T2, human MSLN-R3-his protein; experiment: ELISA; antibody 0.0001 nM
[15] = molecular target: T1, human MSLN-R2-his protein; experiment: ELISA; antibody 0 nM (blank)
[16] = molecular target: T2, human MSLN-R3-his protein; experiment: ELISA; antibody 0 nM (blank)
[17] = molecular target: T3, human MSLN protein, endogenously expressed on Hela and OVCAR3 cells (human, UniProt Q13421 296-598); experiment: FACS on OVCAR3 cells; antibody 4 nM
T3 construct: whole, on cells; also called mesothelin
T3 sequence (Q13421 other isoform, or with tags, fused parts or gaps): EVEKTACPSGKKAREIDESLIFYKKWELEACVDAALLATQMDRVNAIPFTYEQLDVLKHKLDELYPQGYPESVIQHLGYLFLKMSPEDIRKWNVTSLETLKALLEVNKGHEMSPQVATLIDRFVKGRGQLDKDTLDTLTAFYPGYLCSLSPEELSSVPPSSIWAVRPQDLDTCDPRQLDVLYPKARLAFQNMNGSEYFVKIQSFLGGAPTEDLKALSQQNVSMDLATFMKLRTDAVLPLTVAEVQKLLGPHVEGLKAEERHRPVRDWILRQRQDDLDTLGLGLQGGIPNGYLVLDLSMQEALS

[18] = molecular target: T3, human MSLN protein, endogenously …; experiment: FACS on OVCAR3 cells; antibody 20 nM
[19] = molecular target: T3, human MSLN protein, endogenously …; experiment: FACS on OVCAR3 cells; antibody 0.8 nM
[20] = molecular target: T3, human MSLN protein, endogenously …; experiment: FACS on OVCAR3 cells; antibody 100 nM
[21] = molecular target: T4, human MSLN-FL-his protein (human, UniProt Q13421 296-580); experiment: competitive ELISA; row F1.2.12
T4 construct: made in HEK293E cells, purified on nickel column; also called hMSLN-FL-his; human MSLN full-length protein; not shown: His tag
T4 sequence (Q13421 other isoform, or with tags, fused parts or gaps): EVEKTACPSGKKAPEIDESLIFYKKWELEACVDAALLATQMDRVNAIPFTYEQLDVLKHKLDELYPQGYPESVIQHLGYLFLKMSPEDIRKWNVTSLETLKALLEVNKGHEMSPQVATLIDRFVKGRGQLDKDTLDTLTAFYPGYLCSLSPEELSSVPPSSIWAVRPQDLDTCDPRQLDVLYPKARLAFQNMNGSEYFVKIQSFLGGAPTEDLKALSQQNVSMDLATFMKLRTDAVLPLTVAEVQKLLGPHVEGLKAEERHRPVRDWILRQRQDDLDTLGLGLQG

[22] = molecular target: T4, human MSLN-FL-his protein; experiment: competitive ELISA; row F1.56.1
Description: (§1) In order to identify antigen-binding sites of antibodies, MSLN chimeric antibodies were grouped using competitive ELISA.
(§2) The chimeric antibodies were diluted to 2 μg/mL with PBS and allowed to coat 96-well high-adsorption ELISA plates at 50 μL/well. After the plates were coated at 4° C. overnight, 250 μL of a blocking buffer (PBS containing 2% (w/w) BSA) was added for two hours of blocking at room temperature. 40 μg/mL of the antibodies to be tested were added, and then the human MSLN-FL-His protein with an EC₈₀ concentration corresponding to each of the antibodies to be tested was added for incubation for 2 h. The plates were washed 5 times with PBS, an HRP-labeled anti-His secondary antibody (purchased from Genescript, Cat. No. A00612) was then added for incubation for 1 h, and the plates were washed 5 times again. A TMB substrate was added at 50 μL/well, and after 10 minutes of incubation at room temperature, a stop solution (1.0 M HCl) was added at 50 μL/well. OD₄₅₀ nm values were read using an ELISA plate reader (Insight, purchased from PerkinElmer), and the competition rate between the antibodies was calculated according to the OD₄₅₀ nm values using a formula.

[23] = molecular target: T4, human MSLN-FL-his protein; experiment: competitive ELISA; row F2.13.3
Description: as §1, §2

[24] = molecular target: T4, human MSLN-FL-his protein; experiment: competitive ELISA; row F2.17.3
Description: as §1, §2

[25] = molecular target: T4, human MSLN-FL-his protein; experiment: competitive ELISA; row F2.58.8
Description: as §1, §2

[26] = molecular target: T3, human MSLN protein, endogenously …; experiment: FACS on OVCAR3 cells; antibody 0.16 nM
[27] = molecular target: T4, human MSLN-FL-his protein; experiment: competitive ELISA; row F2.16.10
Description: as §1, §2

[28] = molecular target: T4, human MSLN-FL-his protein; experiment: competitive ELISA; row F2.24.10
Description: as §1, §2

[29] = molecular target: T3, human MSLN protein, endogenously …; experiment: FACS on OVCAR3 cells; antibody 0.032 nM
[30] = molecular target: T3, human MSLN protein, endogenously …; experiment: FACS on OVCAR3 cells; antibody 0.0064 nM
[31] = molecular target: T3, human MSLN protein, endogenously …; experiment: FACS on OVCAR3 cells; antibody 0.00128 nM
[32] = molecular target: T4, human MSLN-FL-his protein; experiment: competitive ELISA; row Tab107 (conformation)
Description: as §1, §2

T2 sequence (Q13421 495-606): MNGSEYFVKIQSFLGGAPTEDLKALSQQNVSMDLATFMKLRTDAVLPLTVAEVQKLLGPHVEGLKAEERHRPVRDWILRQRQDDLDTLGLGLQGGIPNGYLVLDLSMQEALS
T1 sequence (Q13421 other isoform, or with tags, fused parts or gaps): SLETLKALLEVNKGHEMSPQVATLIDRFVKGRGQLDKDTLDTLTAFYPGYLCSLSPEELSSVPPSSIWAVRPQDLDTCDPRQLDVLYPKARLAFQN

OD450 nm [1]: 0.05
OD450 nm [2]: 0.05
OD450 nm [3]: 0.05
OD450 nm [4]: 0.05
OD450 nm [5]: 0.04
OD450 nm [6]: 0.09
OD450 nm [7]: 0.05
OD450 nm [8]: 0.09
OD450 nm [9]: 0.04
OD450 nm [10]: 0.04
OD450 nm [11]: 0.05
OD450 nm [12]: 0.05
OD450 nm [13]: 0.04
OD450 nm [14]: 0.05
OD450 nm [15]: 0.05
OD450 nm [16]: 0.05
FACS fluorescence intensity [17]: 1520
FACS fluorescence intensity [18]: 2640
FACS fluorescence intensity [19]: 619
FACS fluorescence intensity [20]: 3150
competition rate [21]: -41%
competition rate [22]: -124%
competition rate [23]: -203%
competition rate [24]: -86%
competition rate [25]: 9%
FACS fluorescence intensity [26]: 229
competition rate [27]: -104%
competition rate [28]: -19%
FACS fluorescence intensity [29]: 111
FACS fluorescence intensity [30]: 80
FACS fluorescence intensity [31]: 76
competition rate [32]: 94%
B1: Tab107 (YP3, hIgG1) (antibody, V domains shown)
VH: QEQLVESGGGLVQPGASLTLTCTASGIDFSRYYMCWVRQAPGKGLEGIACIYIGGSGSTYYASWAKGRFTISKASSTTVTLQMTSLTAADTATYFCARGTNLNYIFRLWGPGTLVTVSS
VL: DVVMTQTPSPVSAAVGGTVTIKCQASQSINNGLAWYQQKPGQPPRLLIYSASNLESGVPSRFKGSGSGTEFTLTISDLECDDAATYYCQCIWDGNSYVNAFGGGTEVVVRT
notes: Control antibody; VH and VL recombined into human IgG1 CH and CL expression vectors; also called YP3 human IgG1 antibody
